# Laboratory results from US20230272016A1, “PEPTIDES FOR IMMUNOTHERAPY” (Second Genome, Inc., priority 2020, published 2023).
# Key:
# Type in all cases: cell-based
# [1] = target: T1, CCR7 (Homo sapiens, UniProt P32248); assay: SelectScreen chemokine receptor U2OS agonist/antagonist assay; conditions: CCR7 expressing U2OS cells
# T1 construct: expressed in transfected cells
# T1 sequence (P32248 25-378): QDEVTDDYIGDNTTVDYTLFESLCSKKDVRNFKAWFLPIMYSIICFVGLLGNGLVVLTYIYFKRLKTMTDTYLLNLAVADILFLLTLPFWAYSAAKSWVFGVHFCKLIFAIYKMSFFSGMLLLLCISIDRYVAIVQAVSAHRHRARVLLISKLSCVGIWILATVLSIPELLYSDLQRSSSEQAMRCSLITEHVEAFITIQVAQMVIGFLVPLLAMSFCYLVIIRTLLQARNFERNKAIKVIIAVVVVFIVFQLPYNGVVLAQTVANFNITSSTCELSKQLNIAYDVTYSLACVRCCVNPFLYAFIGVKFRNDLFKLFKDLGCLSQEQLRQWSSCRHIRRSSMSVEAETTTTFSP
# Method: (§1) Peptides SG-3-00802 and SG-3-05021 were screened for agonist and antagonist activity of the chemokine receptors CCR7, CXCR3, and CXCR4.
# (§2) In agonist assays, chemokine receptor expressing U2OS cells are thawed and resuspended in Assay Media (DMEM, 1% dialyzed FBS, 25 mM HEPES pH 7.3, 0.1 mM NEAA, 100 U/mL/100 μg/mL Pen/Strep) to a concentration of 312,500 cells/mL. 4 μL of a 10×serial dilution of I-TAC (control agonist starting concentration, 500 nM) or compounds are added to appropriate wells of a 384-well TC-Treated assay plate. 32 μL of cell suspension (10,000 cells) is added to each well. 4 μL of Assay Media is added to all wells to bring the final assay volume to 40 μL. The plate is incubated for 16-24 hours at 37° C./5% CO2 in a humidified incubator. 8 μL of 1 μM Substrate+Solution D Loading Solution is added to each well and the plate is incubated for 2 hours at room temperature. The plate is read on a fluorescence plate reader.
# (§3) In antagonist assays, CXCR3-bla U2OS cells were thawed and prepared as described above for the Agonist assay. 4 μL of 10×compounds or assay media was added to appropriate wells of a TC-Treated assay plate. 32 μL of cell suspension was added to the wells and pre-incubated at 37° C./5% CO2 in a humidified incubator with compounds and control antagonist titration for 30 minutes. 4 μL of 10×control agonist I-TAC at the pre-determined EC80 concentration is added to wells containing the control antagonist or compounds. The plate is incubated for 16-24 hours at 37° C./5% CO2 in a humidified incubator. 8 μL of 1 μM Substrate+Solution D Loading Solution is added to each well and the plate is incubated for 2 hours at room temperature. The plate is read on a fluorescence plate reader.
# [2] = target: T2, CXCR4 (Homo sapiens, UniProt P61073); assay: as above; conditions: CXCR4 expressing U2OS cells
# T2 construct: expressed in transfected cells
# T2 sequence (P61073 whole entry): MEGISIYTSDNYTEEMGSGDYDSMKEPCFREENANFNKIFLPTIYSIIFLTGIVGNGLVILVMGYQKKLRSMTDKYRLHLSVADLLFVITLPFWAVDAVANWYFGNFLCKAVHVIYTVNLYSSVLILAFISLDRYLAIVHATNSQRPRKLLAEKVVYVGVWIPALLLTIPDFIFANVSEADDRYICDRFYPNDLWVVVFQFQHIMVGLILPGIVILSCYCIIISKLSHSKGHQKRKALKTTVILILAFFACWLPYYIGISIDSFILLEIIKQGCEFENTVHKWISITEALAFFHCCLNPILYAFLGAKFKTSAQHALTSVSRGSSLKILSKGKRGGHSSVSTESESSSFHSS
# Method: as §1, §2, §3
# [3] = tested on: human purified monocyte-derived dendritic cells; assay: Chemokine release from LPS stimulated monocyte-derived dendritic cells; conditions: LPS at low concentrations, suboptimal activation
# Source text: LPS was used at low concentrations for a suboptimal activation of dendritic cells in the presence of SG-3-00802 peptide or SG-3-05021 peptide.
# [4] = target: T3, SSTR1 (Homo sapiens, UniProt P30872); assay: PathHunter β-Arrestin GPCR assay (gpcrMAX)
# T3 construct: expressed in transfected cells
# T3 sequence (P30872 whole entry): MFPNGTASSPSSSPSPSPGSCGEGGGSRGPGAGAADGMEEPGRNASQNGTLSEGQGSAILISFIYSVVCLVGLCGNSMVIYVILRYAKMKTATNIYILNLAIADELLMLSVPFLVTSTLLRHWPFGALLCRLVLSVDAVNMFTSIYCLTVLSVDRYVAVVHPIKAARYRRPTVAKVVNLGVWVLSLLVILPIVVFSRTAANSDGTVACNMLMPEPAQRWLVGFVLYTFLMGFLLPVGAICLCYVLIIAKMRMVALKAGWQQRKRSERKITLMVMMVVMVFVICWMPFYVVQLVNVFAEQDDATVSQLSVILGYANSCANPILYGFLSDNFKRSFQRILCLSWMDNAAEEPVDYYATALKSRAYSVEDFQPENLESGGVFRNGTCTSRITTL
# Source text: The PathHunter® β-Arrestin Assay monitored activation of a panel of 168 G-protein coupled receptors (GPCRs) with […] activation of the GPCR in agonist and antagonist mode.
# where the test sample is the peptide, the vehicle control=DMSO (0% activity), and the control ligand=control compound (100% activity).
# Peptides SG-3-00802 and SG-3-05021 were identified as an agonist, an antagonist, a PAM (Positive Allosteric Modulator), or an inverse-agonist. Agonist, antagonist, PAM, and inverse-agonist were identified according to the guidelines in Table 18. The basal activity/noise is a % activity of −20% to 20% for both agonist and antagonist modes. A PAM (Positive Allosteric Modulator) binds to a receptor, at a different site than the agonist, to change the receptor's response to the agonist. An inverse-Agonist is a binding partner with agonistic shutting down of basal activity in the cell. An antagonist antagonizes the activity of a particular binding partner.
Sequence,SelectScreen Agonist Mode [1],SelectScreen Agonist Mode [2],SelectScreen Antagonist Mode [2],CXCL10 chemokine release [3],GPCR target assay Interpretation [4]
"MKVRPSVKPMCEKCKIIRRKGRVMVICENPKHKQRQG [SG-3-00802, peptide from oscillibacter.sp t_155102]",weak agonistic activity and No,no agonistic activity and No,moderate antagonistic activity and no antagonistic activity and Yes,dose-dependent increase,Inverse-agonist
"LGKTDWIEKYFKVKKEKIDKMQRFLQG [SG-3-05021, peptide from bacteroides.clarus.dsm.22519]",no agonistic activity and No,no agonistic activity and No,–,dose-dependent increase,Inverse-agonist and PAM
